Test results from patent US20240083948.

Legend:
AKT1 (PKB alpha), active = AKT1 (PKB alpha), active (UniProt P31749)
[1] = molecular target: AKT1 Ser473Asp mutant, active (UniProt P31749)
[2] = molecular target: AKT1 mutant with a deletion in the PH domain, active (UniProt P31749)
[3] = test system: PKAc, full-length, active (catalytic subunit of Protein Kinase A)
[4] = test system: T1, ZaTa peptide (Ala-Lys-Arg-Val-Lys-Gly-Arg-Thr-Trp-Thr-Leu-Cys-Gly-Thr-Pro-Glu-Tyr)
T1 sequence: AKRVKGRTWTLCGTPEY

[5] = test system: T2, adjacent peptide Gly-Phe-Ala-Lys-Arg-Val-Lys-Gly-Arg-Thr-Trp-Thr-Leu
T2 sequence: GFAKRVKGRTWTL

Sequence of AKT1 (PKB alpha), active (P31749 whole entry, looked up): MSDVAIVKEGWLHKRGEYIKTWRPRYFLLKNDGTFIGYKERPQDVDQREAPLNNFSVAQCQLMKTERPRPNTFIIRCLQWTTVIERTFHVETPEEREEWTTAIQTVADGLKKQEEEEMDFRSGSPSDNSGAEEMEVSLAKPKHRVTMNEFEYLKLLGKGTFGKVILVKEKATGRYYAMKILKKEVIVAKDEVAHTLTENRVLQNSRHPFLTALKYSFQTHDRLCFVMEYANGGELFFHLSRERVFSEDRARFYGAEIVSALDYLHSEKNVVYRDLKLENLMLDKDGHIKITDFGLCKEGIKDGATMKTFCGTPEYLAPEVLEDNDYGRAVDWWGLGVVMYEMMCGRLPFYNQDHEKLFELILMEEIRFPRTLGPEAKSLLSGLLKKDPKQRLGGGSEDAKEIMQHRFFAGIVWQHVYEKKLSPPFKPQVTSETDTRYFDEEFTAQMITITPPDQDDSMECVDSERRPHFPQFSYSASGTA
Sequence of AKT1 Ser473Asp mutant, active (P31749 whole entry S473D, the tested form may be a part): as the sequence (P31749 whole entry, looked up) above, with S473D counted along it
Sequence of AKT1 mutant with a deletion in the PH domain, active (P31749 whole entry, looked up, stated change not applied, the tested form may be a part): as the sequence (P31749 whole entry, looked up) above

human PKAc expressed in Sf9 cells
AKT kinase assay, catalytic activity of AKT (AKT1 (PKB alpha), active): the same inhibitory effect was observed ... with human PKAc expressed in Sf9 cells

active PKAc purified from bovine tissue
AKT kinase assay, catalytic activity of AKT (AKT1 (PKB alpha), active): the same inhibitory effect was observed with active PKAc purified from bovine tissue

PKAc, full-length, active (catalytic subunit of Protein Kinase A)
AKT kinase assay, Ser-9 GSK-3 GST fusion protein as substrate (AKT1 (PKB alpha), active): the kinetic activity of AKT was dramatically reduced | AKT kinase assay, catalytic activity of the AKT1 mutant [1]: The decrease in the catalytic activity of AKT by PKAc was also observed with two mutants and active forms of AKT1 ... the other one with a Ser473Asp mutation | AKT kinase assay, catalytic activity of the AKT1 mutant [2]: The decrease in the catalytic activity of AKT by PKAc was also observed with two mutants and active forms of AKT1, one with a deletion in the PH domain

AKT1 (PKB alpha), active
PKA kinase assay, phosphorylation level of DARPP-32 at Thr-34 [3]: addition of the active AKT to the PKA kinase assay increased the catalytic activity of PKAc | phosphorylation level of PKAc at Thr-197 [3]: the increase in the PKAc catalytic activity was accompanied by an increase in the phosphorylation level of PKAc at Thr-197 | AKT1 kinase assay, phosphorylation level of Ser-9 GSK-3 GST substrate (western blot) [4]: The phosphorylation level of Ser-9 GSK-3 GST substrate was significantly reduced after adding the ZaTa peptide to the AKT1 kinase assay | control kinase reactions that contained the peptide and AKT only [4]: ZaTa peptide itself was not a substrate for AKT | AKT1 in vitro catalytic activity (incorporation of γ-32P into Ser-21 GSK-3β substrate peptide) [5]: the adjacent overlapping peptide was not able to inhibit AKT1
